The values that follow are results of earlier work, collected in PMC5146272.

One series has as its target Raver1 (Homo sapiens) (UniProt Q8IY67).
Series [1] addresses U2AF35 UHM (Homo sapiens) (UniProt Q01081).

U2AF65 PEP, sequence (P26368 85-112, one chain of several): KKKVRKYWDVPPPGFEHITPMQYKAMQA
Raver1 (Homo sapiens), sequence (Q8IY67 2-606): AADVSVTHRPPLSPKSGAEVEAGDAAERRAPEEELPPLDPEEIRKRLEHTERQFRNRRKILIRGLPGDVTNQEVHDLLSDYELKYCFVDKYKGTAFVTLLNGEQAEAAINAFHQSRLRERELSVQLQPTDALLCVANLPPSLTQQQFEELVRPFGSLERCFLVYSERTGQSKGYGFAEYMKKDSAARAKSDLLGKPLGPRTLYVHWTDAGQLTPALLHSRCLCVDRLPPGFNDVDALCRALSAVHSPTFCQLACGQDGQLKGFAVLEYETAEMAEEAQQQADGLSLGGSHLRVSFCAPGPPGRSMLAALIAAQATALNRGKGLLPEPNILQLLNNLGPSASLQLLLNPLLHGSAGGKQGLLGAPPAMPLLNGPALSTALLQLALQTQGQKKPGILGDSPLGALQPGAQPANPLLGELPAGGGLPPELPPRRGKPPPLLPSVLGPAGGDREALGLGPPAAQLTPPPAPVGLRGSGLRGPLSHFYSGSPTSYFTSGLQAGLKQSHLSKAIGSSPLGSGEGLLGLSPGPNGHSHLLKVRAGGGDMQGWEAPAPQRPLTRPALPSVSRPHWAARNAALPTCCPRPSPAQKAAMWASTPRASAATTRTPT
PTB RRM, sequence (P26599 184-260): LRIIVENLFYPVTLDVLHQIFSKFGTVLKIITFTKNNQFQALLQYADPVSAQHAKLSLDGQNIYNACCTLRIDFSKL
U2AF35 UHM (Homo sapiens), sequence (Q01081 43-146, one chain of several): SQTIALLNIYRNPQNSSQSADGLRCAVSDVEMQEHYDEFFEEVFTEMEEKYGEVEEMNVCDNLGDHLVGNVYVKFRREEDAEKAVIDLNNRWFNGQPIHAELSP

Regarding PTB RRM (from UniProt P26599), the Kd with Raver1 (Homo sapiens) is 100 µM. As to U2AF65 PEP (from UniProt P26368), in series [1], the Kd was 0.002 µM.
